Measured values reported in IntAct's records for PubMed 31515488.

B1: Zinc finger protein RFP (Homo sapiens), P14373 (parent)
chain: MASGSVAECLQQETTCPVCLQYFAEPMMLDCGHNICCACLARCWGTAETNVSCPQCRETFPQRHMRPNRHLANVTQLVKQLRTERPSGPGGEMGVCEKHREPLKLYCEEDQMPICVVCDRSREHRGHSVLPLEEAVEGFKEQIQNQLDHLKRVKDLKKRRRAQGEQARAELLSLTQMEREKIVWEFEQLYHSLKEHEYRLLARLEELDLAIYNSINGAITQFSCNISHLSSLIAQLEEKQQQPTRELLQDIGDTLSRAERIRIPEPWITPPDLQEKIHIFAQKCLFLTESLKQFTEKMQSDMEKIQELREAQLYSVDVTLDPDTAYPSLILSDNLRQVRYSYLQQDLPDNPERFNLFPCVLGSPCFIAGRHYWEVEVGDKAKWTIGVCEDSVCRKGGVTSAPQNGFWAVSLWYGKEYWALTSPMTALPLRTPLQRVGIFLDYDAGEVSFYNVTERCHTFTFSHATFCGPVRPYFSLSYSGGKSAAPLIICPMSGIDGFSGHVGNHGHSMETSP
B2: Scaffold protein ILK (Homo sapiens), Q13418 (parent)
chain: MDDIFTQCREGNAVAVRLWLDNTENDLNQGDDHGFSPLHWACREGRSAVVEMLIMRGARINVMNRGDDTPLHLAASHGHRDIVQKLLQYKADINAVNEHGNVPLHYACFWGQDQVAEDLVANGALVSICNKYGEMPVDKAKAPLRELLRERAEKMGQNLNRIPYKDTFWKGTTRTRPRNGTLNKHSGIDFKQLNFLTKLNENHSGELWKGRWQGNDIVVKVLKVRDWSTRKSRDFNEECPRLRIFSHPNVLPVLGACQSPPAPHPTLITHWMPYGSLYNVLHEGTNFVVDQSQAVKFALDMARGMAFLHTLEPLIPRHALNSRSVMIDEDMTARISMADVKFSFQCPGRMYAPAWVAPEALQKKPEDTNRRSADMWSFAVLLWELVTREVPFADLSNMEIGMKVALEGLRPTIPPGISPHVCKLMKICMNEDPAKRPKFDMIVPILEKMQDK
partner: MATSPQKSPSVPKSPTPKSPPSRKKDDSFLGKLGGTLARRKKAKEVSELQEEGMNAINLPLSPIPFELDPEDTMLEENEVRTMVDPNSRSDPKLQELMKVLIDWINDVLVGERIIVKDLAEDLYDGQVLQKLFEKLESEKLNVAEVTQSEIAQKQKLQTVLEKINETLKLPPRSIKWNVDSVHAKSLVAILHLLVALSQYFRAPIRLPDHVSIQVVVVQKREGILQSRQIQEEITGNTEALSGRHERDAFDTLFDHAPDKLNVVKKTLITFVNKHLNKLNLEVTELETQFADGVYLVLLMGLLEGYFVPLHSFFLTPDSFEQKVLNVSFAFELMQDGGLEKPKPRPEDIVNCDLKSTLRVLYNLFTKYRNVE
B3: Seipin (Homo sapiens), Q96G97-4 (parent)
chain: MSTEKVDQKEEAGEKEVCGDQIKGPDKEEEPPAAASHGQGWRPGGRAARNARPEPGARHPALPAMVNDPPVPALLWAQEVGQVLAGRARRLLLQFGVLFCTILLLLWVSVFLYGSFYYSYMPTVSHLSPVHFYYRTDCDSSTTSLCSFPVANVSLTKGGRDRVLMYGQPYRVTLELELPESPVNQDLGMFLVTISCYTRGGRIISTSSRSVMLHYRSDLLQMLDTLVFSSLLLFGFAEQKQLLEVELYADYRENSYVPTTGAIIEIHSKRIQLYGAYLRIHAHFTGLRYLLYNFPMTCAFIGVASNFTFLSVIVLFSYMQWVWGGIWPRHRFSLQVNIRKRDNSRKEVQRRISAHQPGPEGQEESTPQSDVTEDGESPEDPSGTEGQLSEEEKPDQQPLSGEEELEPEASDGSGSWEDAALLTEANLPAPAPASASAPVLETLGSSEPAGGALRQRPTCSSS
partner: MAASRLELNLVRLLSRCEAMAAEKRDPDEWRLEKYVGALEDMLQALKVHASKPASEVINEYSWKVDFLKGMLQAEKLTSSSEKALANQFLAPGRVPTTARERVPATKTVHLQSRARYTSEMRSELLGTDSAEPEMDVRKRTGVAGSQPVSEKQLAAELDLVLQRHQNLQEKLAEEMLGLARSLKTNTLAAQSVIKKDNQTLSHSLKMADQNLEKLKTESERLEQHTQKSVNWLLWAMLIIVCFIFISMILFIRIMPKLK
B4: Sodium channel modifier 1 (Homo sapiens), Q9BWG6 (parent)
chain: MSFKREGDDWSQLNVLKKRRVGDLLASYIPEDEALMLRDGRFACAICPHRPVLDTLAMLTAHRAGKKHLSSLQLFYGKKQPGKERKQNPKHQNELRREETKAEAPLLTQTRLITQSALHRAPHYNSCCRRKYRPEAPGPSVSLSPMPPSEVKLQSGKISREPEPAAGPQAEESATVSAPAPMSPTRRRALDHYLTLRSSGWIPDGRGRWVKDENVEFDSDEEEPPDLPLD
partner: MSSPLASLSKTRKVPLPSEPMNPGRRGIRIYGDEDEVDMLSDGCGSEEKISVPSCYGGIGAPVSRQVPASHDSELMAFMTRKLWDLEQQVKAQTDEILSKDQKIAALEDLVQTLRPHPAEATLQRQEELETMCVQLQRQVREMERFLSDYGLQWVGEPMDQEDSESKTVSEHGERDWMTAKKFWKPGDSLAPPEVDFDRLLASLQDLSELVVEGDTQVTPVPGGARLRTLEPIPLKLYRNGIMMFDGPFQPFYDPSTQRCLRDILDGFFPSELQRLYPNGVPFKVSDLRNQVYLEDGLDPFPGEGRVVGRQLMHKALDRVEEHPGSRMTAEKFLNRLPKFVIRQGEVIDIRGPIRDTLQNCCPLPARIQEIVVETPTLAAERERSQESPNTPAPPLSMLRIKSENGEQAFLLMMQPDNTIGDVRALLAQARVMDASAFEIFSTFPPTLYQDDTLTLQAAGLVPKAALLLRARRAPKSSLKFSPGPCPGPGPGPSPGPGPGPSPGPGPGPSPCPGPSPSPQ
B5: 2'-5'-oligoadenylate synthase 1 (Homo sapiens), P00973 (parent)
chain: MMDLRNTPAKSLDKFIEDYLLPDTCFRMQINHAIDIICGFLKERCFRGSSYPVCVSKVVKGGSSGKGTTLRGRSDADLVVFLSPLTTFQDQLNRRGEFIQEIRRQLEACQRERAFSVKFEVQAPRWGNPRALSFVLSSLQLGEGVEFDVLPAFDALGQLTGGYKPNPQIYVKLIEECTDLQKEGEFSTCFTELQRDFLKQRPTKLKSLIRLVKHWYQNCKKKLGKLPPQYALELLTVYAWERGSMKTHFNTAQGFRTVLELVINYQQLCIYWTKYYDFKNPIIEKYLRRQLTKPRPVILDPADPTGNLGGGDPKGWRQLAQEAEAWLNYPCFKNWDGSPVSSWILLAESNSADDETDDPRRYQKYGYIGTHEYPHFSHRPSTLQAASTPQAEEDWTCTIL
partner: B1 chain
B6: Progranulin (Homo sapiens), P28799 (parent)
chain: MWTLVSWVALTAGLVAGTRCPDGQFCPVACCLDPGGASYSCCRPLLDKWPTTLSRHLGGPCQVDAHCSAGHSCIFTVSGTSSCCPFPEAVACGDGHHCCPRGFHCSADGRSCFQRSGNNSVGAIQCPDSQFECPDFSTCCVMVDGSWGCCPMPQASCCEDRVHCCPHGAFCDLVHTRCITPTGTHPLAKKLPAQRTNRAVALSSSVMCPDARSRCPDGSTCCELPSGKYGCCPMPNATCCSDHLHCCPQDTVCDLIQSKCLSKENATTDLLTKLPAHTVGDVKCDMEVSCPDGYTCCRLQSGAWGCCPFTQAVCCEDHIHCCPAGFTCDTQKGTCEQGPHQVPWMEKAPAHLSLPDPQALKRDVPCDNVSSCPSSDTCCQLTSGEWGCCPIPEAVCCSDHQHCCPQGYTCVAEGQCQRGSEIVAGLEKMPARRASLSHPRDIGCDQHTSCPVGQTCCPSLGGSWACCQLPHAVCCEDRQHCCPAGYTCNVKARSCEKEVVSAQPATFLARSPHVGVKDVECGEGHFCHDNQTCCRDNRQGWACCPYRQGVCCADRRHCCPAGFRCAARGTKCLRREAPRWDAPLRDPALRQLL
B7: U3 small nucleolar RNA-associated protein 25 homolog (Homo sapiens), Q68CQ4 (parent)
chain: MGKRGSRSQSQLLNTLTKKQKKHLRDFGEEHPFYDRVSRKEAKPQICQLSESSDSSDSESDSESEPQQVSGYHRLLATLKNVSEEEEEDEEEEEEEDSIVDDAEMNDEDGGSDVSVEEEMAAESTESPENVALSADPEGKEDGEEPPGTSQTSPEEFTDAKHESLFSLETNFLEEESGDNSSLKASQDPFLQHVNKELKEKAIQAVATNPKTTHELKWPILGQLFFSSKFQKLETFKPPKDIDLKSLHLQKPLESTWTKTNSQFLSGPQKSSSPFTPLQKELFLIMNSYRDLFYPERTALKNGEEIRHVYCLHVINHILKANAQVLGNNSRRRSQKFGVGDDDDFRDQGLTRPKVLIVVPFREAALRVVQLFISLLEGDSKKKIIVSNKKRFQGEYGSDPEERPPNLKRPEDYEAVFVGNIDDHFRIGVAILQRSIRLYAPFYSSDILIASPLGLRTIIGGEGEKKRDFDFLSSIELLIIDQADIYLMQNWEHVLHLMNHMNLLPLDSHGVDFSRVRMWSLNNWSKYYRQTLLFGALQDAQINSVFNKYCVNMQGQVAVRNVPMTGSISHVLVQLPHVFQRMEAENLASVIDARFNFFVNKILPQYRDAVMSHTLIYIPSYFDFVRLRNYFKKEELNFTHICEYTQKSGVSRARHFFLQGEKQFLLFTERFHFYKRYTIKGIRNLIFYELPTYPHFYSEICNMLRATNRGEEATWTCTVLYSKYDAQRLAAVVGVERAAQMLQSNKNVHLFITGEK
B8: Glutathione S-transferase A2 (Homo sapiens), P09210 (parent)
chain: MAEKPKLHYSNIRGRMESIRWLLAAAGVEFEEKFIKSAEDLDKLRNDGYLMFQQVPMVEIDGMKLVQTRAILNYIASKYNLYGKDIKEKALIDMYIEGIADLGEMILLLPFSQPEEQDAKLALIQEKTKNRYFPAFEKVLKSHGQDYLVGNKLSRADIHLVELLYYVEELDSSLISSFPLLKALKTRISNLPTVKKFLQPGSPRKPPMDEKSLEESRKIFRF
partner: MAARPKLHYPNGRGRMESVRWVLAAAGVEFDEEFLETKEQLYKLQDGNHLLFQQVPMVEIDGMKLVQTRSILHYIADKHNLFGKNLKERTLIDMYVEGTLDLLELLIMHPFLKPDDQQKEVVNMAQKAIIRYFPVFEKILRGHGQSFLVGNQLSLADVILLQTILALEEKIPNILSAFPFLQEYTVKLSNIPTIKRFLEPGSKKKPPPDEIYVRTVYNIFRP

Variants of: B1
Conditions: with if4e_human EIF4E

Variant	effect of a mutation on the interaction
N355S	with no effect

Variants of: B1
Conditions: with fhl3_human FHL3, Q13643
fhl3_human FHL3, Q13643, sequence (Q13643 whole entry): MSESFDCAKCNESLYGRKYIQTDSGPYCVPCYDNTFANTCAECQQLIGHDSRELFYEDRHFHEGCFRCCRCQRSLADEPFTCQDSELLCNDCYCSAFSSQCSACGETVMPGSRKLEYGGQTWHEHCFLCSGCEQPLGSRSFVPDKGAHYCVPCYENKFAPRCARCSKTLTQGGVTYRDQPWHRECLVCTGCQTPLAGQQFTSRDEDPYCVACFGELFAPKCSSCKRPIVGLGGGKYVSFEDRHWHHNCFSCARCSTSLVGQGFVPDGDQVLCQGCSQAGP

Variant	effect of a mutation on the interaction
N355S	disrupting interaction strength

Variants of: B1
Conditions: with bmp7_human BMP7, P18075
bmp7_human BMP7, P18075, sequence (P18075 whole entry): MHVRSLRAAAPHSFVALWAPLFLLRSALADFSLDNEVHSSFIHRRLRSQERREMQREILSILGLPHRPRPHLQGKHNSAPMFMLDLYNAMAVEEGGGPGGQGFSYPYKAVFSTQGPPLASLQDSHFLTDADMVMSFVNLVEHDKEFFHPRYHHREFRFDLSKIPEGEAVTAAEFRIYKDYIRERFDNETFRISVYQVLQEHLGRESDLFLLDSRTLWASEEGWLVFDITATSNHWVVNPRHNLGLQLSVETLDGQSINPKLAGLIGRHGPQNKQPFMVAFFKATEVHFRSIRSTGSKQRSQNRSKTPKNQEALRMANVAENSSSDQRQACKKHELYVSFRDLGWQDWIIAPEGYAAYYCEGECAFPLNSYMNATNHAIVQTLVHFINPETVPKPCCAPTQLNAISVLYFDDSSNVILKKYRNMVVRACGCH

Variant	effect of a mutation on the interaction
N355S	with no effect

Variants of: B1
Conditions: with ercc3_human ERCC3, P19447
ercc3_human ERCC3, P19447, sequence (P19447 whole entry): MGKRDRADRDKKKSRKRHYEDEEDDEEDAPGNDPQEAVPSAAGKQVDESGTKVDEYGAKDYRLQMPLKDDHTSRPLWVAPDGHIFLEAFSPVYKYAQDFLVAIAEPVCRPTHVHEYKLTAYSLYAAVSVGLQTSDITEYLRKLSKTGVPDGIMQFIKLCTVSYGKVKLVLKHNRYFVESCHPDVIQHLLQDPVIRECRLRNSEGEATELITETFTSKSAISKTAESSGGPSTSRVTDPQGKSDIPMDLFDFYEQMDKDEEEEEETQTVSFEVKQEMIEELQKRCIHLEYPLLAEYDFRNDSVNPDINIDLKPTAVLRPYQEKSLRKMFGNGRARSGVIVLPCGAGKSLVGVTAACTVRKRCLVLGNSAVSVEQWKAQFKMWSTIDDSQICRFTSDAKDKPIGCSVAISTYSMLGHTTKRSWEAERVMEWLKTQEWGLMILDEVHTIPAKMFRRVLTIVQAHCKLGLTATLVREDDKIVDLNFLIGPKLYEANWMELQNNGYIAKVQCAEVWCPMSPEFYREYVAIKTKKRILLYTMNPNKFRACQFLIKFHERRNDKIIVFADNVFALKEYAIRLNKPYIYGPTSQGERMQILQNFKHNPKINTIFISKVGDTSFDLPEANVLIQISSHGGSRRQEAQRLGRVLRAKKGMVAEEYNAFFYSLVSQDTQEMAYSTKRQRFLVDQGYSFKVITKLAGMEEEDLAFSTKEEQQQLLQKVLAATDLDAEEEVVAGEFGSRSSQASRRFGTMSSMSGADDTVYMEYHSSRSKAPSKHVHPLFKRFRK

Variant	effect of a mutation on the interaction
N355S	with no effect

Variants of: B2
Conditions: with parva_human PARVA

Variant	effect of a mutation on the interaction
R46H	with no effect
K223N	disrupting interaction strength
M425I	with no effect
L311I	with no effect
R349H	disrupting interaction strength
Q362H	with no effect
Y278H	disrupting interaction strength
V340G	with no effect
A262V	with no effect
L314H	with no effect

Variants of: B3
Conditions: with use1_human USE1, Q9NZ43

Variant	effect of a mutation on the interaction
D20E	with no effect

Variants of: B4
Conditions: with ubx11_human UBXN11, Q5T124

Variant	effect of a mutation on the interaction
A174V	with no effect

Variants of: B5
Conditions: with tri27_human TRIM27, P14373

Variant	effect of a mutation on the interaction
L327P	disrupting interaction strength

Variants of: B6
Conditions: with hxa1_human HOXA1, P49639
hxa1_human HOXA1, P49639, sequence (P49639 whole entry): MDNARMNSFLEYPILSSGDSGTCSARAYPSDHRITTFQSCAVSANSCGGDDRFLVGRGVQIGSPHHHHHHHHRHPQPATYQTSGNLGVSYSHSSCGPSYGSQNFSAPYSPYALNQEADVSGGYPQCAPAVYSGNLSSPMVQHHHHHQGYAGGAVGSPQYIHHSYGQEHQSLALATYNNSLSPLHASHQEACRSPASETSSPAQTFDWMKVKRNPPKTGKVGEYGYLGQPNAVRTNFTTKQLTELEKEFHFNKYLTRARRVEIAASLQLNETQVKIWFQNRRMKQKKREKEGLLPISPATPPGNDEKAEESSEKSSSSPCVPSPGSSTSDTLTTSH

Variant	effect of a mutation on the interaction
G515A	with no effect

Variants of: B6
Conditions: with glrx3_human GLRX3, O76003
glrx3_human GLRX3, O76003, sequence (O76003 whole entry): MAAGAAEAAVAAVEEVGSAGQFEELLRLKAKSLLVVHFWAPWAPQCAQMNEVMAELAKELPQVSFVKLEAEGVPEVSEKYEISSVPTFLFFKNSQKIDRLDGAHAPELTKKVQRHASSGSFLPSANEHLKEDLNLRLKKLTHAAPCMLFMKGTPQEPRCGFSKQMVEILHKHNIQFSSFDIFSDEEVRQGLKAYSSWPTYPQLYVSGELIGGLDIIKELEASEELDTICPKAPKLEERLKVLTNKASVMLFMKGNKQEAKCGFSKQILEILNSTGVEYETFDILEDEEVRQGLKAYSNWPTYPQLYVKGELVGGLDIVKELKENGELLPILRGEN

Variant	effect of a mutation on the interaction
G515A	with no effect

Variants of: B7
Conditions: with rufy1_human RUFY1, Q96T51
rufy1_human RUFY1, Q96T51, sequence (Q96T51 whole entry): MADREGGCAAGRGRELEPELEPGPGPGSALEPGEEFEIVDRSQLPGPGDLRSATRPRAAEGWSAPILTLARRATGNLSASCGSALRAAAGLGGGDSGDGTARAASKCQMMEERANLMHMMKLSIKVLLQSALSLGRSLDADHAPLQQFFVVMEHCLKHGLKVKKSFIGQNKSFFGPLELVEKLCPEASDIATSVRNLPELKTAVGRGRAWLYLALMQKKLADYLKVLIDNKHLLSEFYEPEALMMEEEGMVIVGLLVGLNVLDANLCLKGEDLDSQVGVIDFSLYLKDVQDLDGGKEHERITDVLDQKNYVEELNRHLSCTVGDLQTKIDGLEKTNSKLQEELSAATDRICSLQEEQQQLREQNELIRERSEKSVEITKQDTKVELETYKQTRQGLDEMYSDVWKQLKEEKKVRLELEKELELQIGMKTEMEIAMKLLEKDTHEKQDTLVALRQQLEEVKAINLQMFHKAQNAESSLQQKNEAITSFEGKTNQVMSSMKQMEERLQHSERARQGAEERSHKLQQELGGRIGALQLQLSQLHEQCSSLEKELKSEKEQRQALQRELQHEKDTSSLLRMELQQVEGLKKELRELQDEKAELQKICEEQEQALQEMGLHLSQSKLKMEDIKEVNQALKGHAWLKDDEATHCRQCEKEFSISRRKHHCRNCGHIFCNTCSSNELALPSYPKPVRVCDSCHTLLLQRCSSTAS

Variant	effect of a mutation on the interaction
Q67E	with no effect
G111D	with no effect

Variants of: B7
Conditions: with cep70_human CEP70, Q8NHQ1
cep70_human CEP70, Q8NHQ1, sequence (Q8NHQ1 whole entry): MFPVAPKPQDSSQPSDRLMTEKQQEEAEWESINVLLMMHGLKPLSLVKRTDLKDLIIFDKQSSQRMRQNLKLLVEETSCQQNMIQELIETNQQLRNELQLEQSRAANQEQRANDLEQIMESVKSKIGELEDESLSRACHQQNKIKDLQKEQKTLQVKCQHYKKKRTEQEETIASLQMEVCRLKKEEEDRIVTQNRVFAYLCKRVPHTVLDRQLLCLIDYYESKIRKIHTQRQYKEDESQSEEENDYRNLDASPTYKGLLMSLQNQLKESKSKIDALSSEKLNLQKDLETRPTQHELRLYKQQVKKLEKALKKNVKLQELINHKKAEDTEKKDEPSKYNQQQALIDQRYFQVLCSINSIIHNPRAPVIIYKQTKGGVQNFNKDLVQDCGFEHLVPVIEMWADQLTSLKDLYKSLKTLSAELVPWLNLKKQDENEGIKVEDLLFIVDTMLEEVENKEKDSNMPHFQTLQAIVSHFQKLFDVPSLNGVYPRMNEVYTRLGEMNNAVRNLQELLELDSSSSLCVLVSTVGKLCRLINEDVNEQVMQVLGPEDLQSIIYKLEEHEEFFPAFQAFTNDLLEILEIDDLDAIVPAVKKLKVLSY

Variant	effect of a mutation on the interaction
Q67E	with no effect
G111D	with no effect

Variants of: B7
Conditions: with trim1_human MID2, Q9UJV3
trim1_human MID2, Q9UJV3, sequence (Q9UJV3 whole entry): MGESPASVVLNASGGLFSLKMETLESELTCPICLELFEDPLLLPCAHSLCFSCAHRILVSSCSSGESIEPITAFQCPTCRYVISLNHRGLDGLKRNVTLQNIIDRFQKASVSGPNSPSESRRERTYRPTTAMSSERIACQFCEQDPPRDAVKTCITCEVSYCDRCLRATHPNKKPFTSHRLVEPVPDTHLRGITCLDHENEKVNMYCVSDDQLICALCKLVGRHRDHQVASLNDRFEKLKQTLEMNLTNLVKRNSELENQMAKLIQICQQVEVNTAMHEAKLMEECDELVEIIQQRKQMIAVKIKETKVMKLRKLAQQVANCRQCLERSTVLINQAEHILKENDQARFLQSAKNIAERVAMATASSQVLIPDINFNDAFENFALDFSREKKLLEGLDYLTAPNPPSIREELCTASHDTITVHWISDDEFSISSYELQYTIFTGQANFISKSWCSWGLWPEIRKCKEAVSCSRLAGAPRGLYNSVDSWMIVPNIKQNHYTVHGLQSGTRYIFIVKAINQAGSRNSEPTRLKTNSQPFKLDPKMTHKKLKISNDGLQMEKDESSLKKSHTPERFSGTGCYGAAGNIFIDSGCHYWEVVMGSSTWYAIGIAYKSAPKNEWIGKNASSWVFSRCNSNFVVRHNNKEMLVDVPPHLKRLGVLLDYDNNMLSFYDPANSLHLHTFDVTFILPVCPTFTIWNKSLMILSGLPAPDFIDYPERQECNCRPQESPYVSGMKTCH

Variant	effect of a mutation on the interaction
Q67E	with no effect
G111D	with no effect

Variants of: B8
Conditions: with gsta4_human GSTA4, O15217

Variant	effect of a mutation on the interaction
E210A	with no effect
